Biological target: Caspase-3-L-tev-S (Homo sapiens (Human)) (UniProt P42574)
Assay: cell-based or functional assay

## membrane-bound TEVP (CAAX) (enzyme)
  cell death of polytransfected HEK293 cells, Annexin V staining and flow cytometry: 40 % cell death

Reference: US20250152743A1, “SYNPOPTOSIS CIRCUITS FOR PROGRAMMABLE CELL DEATH CONTROL” (California Institute of Technology, priority 2023, published 2025)
